Results taken from US20180155451A1 (published 2018).

T1: FcγRIIb extracellular domain with C-terminal His tag (human, UniProt P31994 43-217)
T1 construct: extracellular domain; also called 2b; FcgRIIb; not shown: His tag at the C terminus
T1 sequence (looked up): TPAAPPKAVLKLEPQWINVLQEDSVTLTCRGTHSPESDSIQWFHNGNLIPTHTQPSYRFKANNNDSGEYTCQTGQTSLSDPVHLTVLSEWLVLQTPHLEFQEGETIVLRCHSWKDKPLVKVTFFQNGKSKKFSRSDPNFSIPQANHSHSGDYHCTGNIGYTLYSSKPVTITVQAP

B1: GpH7-A5/GpH7-B3 variant K334_12R/GpL16-k0 (antibody, human IgG1, kappa)
heavy 1: not shown
heavy 2: not shown
light: DIVMTQSPLSLPVTPGEPASISCQASESLVHSNRNTYLHWYLQKPGQSPQLLIYKVSNRFSGVPDRFSGSGSGTDFTLKISRVEAEDVGVYYCSQNTHVPPTFGQGTKVEIERTVAAPSVFIFPPSDEQLKSGTASVVCLLNNFYPREAKVQWKVDNALQSGNSQESVTEQDSKDSTYSLSSTLTLSKADYEKHKVYACEVTHQGLSSPVTKSFNRGEC
notes: He Ab: mutation in the GpH7-B3 H chain only; also called He Ab
B2: GpH7-A5/GpH7-B3 variant I332_04F/GpL16-k0 (antibody, human IgG1, kappa)
heavy 1: not shown
heavy 2: not shown
light: DIVMTQSPLSLPVTPGEPASISCQASESLVHSNRNTYLHWYLQKPGQSPQLLIYKVSNRFSGVPDRFSGSGSGTDFTLKISRVEAEDVGVYYCSQNTHVPPTFGQGTKVEIERTVAAPSVFIFPPSDEQLKSGTASVVCLLNNFYPREAKVQWKVDNALQSGNSQESVTEQDSKDSTYSLSSTLTLSKADYEKHKVYACEVTHQGLSSPVTKSFNRGEC
notes: as for B1
B3: GpH7-A5/GpH7-B3 variant D265_15Y/GpL16-k0 (antibody, human IgG1, kappa)
heavy 1: not shown
heavy 2: not shown
light: DIVMTQSPLSLPVTPGEPASISCQASESLVHSNRNTYLHWYLQKPGQSPQLLIYKVSNRFSGVPDRFSGSGSGTDFTLKISRVEAEDVGVYYCSQNTHVPPTFGQGTKVEIERTVAAPSVFIFPPSDEQLKSGTASVVCLLNNFYPREAKVQWKVDNALQSGNSQESVTEQDSKDSTYSLSSTLTLSKADYEKHKVYACEVTHQGLSSPVTKSFNRGEC
notes: as for B1
B4: GpH7-A5/GpH7-B3 variant L328_03V/GpL16-k0 (antibody, human IgG1, kappa)
heavy 1: not shown
heavy 2: not shown
light: DIVMTQSPLSLPVTPGEPASISCQASESLVHSNRNTYLHWYLQKPGQSPQLLIYKVSNRFSGVPDRFSGSGSGTDFTLKISRVEAEDVGVYYCSQNTHVPPTFGQGTKVEIERTVAAPSVFIFPPSDEQLKSGTASVVCLLNNFYPREAKVQWKVDNALQSGNSQESVTEQDSKDSTYSLSSTLTLSKADYEKHKVYACEVTHQGLSSPVTKSFNRGEC
notes: as for B1
B5: GpH7-A5/GpH7-B3 variant L328_06M/GpL16-k0 (antibody, human IgG1, kappa)
heavy 1: not shown
heavy 2: not shown
light: DIVMTQSPLSLPVTPGEPASISCQASESLVHSNRNTYLHWYLQKPGQSPQLLIYKVSNRFSGVPDRFSGSGSGTDFTLKISRVEAEDVGVYYCSQNTHVPPTFGQGTKVEIERTVAAPSVFIFPPSDEQLKSGTASVVCLLNNFYPREAKVQWKVDNALQSGNSQESVTEQDSKDSTYSLSSTLTLSKADYEKHKVYACEVTHQGLSSPVTKSFNRGEC
notes: as for B1
B6: GpH7-A5/GpH7-B3 variant D265_16H/GpL16-k0 (antibody, human IgG1, kappa)
heavy 1: not shown
heavy 2: not shown
light: DIVMTQSPLSLPVTPGEPASISCQASESLVHSNRNTYLHWYLQKPGQSPQLLIYKVSNRFSGVPDRFSGSGSGTDFTLKISRVEAEDVGVYYCSQNTHVPPTFGQGTKVEIERTVAAPSVFIFPPSDEQLKSGTASVVCLLNNFYPREAKVQWKVDNALQSGNSQESVTEQDSKDSTYSLSSTLTLSKADYEKHKVYACEVTHQGLSSPVTKSFNRGEC
notes: as for B1
B7: GpH7-A5/GpH7-B3 variant L328_10E/GpL16-k0 (antibody, human IgG1, kappa)
heavy 1: not shown
heavy 2: not shown
light: DIVMTQSPLSLPVTPGEPASISCQASESLVHSNRNTYLHWYLQKPGQSPQLLIYKVSNRFSGVPDRFSGSGSGTDFTLKISRVEAEDVGVYYCSQNTHVPPTFGQGTKVEIERTVAAPSVFIFPPSDEQLKSGTASVVCLLNNFYPREAKVQWKVDNALQSGNSQESVTEQDSKDSTYSLSSTLTLSKADYEKHKVYACEVTHQGLSSPVTKSFNRGEC
notes: as for B1
B8: GpH7-A5/GpH7-B3 variant D265_14T/GpL16-k0 (antibody, human IgG1, kappa)
heavy 1: not shown
heavy 2: not shown
light: DIVMTQSPLSLPVTPGEPASISCQASESLVHSNRNTYLHWYLQKPGQSPQLLIYKVSNRFSGVPDRFSGSGSGTDFTLKISRVEAEDVGVYYCSQNTHVPPTFGQGTKVEIERTVAAPSVFIFPPSDEQLKSGTASVVCLLNNFYPREAKVQWKVDNALQSGNSQESVTEQDSKDSTYSLSSTLTLSKADYEKHKVYACEVTHQGLSSPVTKSFNRGEC
notes: as for B1
B9: GpH7-A5/GpH7-B3 variant L328_19Q/GpL16-k0 (antibody, human IgG1, kappa)
heavy 1: not shown
heavy 2: not shown
light: DIVMTQSPLSLPVTPGEPASISCQASESLVHSNRNTYLHWYLQKPGQSPQLLIYKVSNRFSGVPDRFSGSGSGTDFTLKISRVEAEDVGVYYCSQNTHVPPTFGQGTKVEIERTVAAPSVFIFPPSDEQLKSGTASVVCLLNNFYPREAKVQWKVDNALQSGNSQESVTEQDSKDSTYSLSSTLTLSKADYEKHKVYACEVTHQGLSSPVTKSFNRGEC
notes: as for B1
B10: GpH7-A5/GpH7-B3 variant L328_04F/GpL16-k0 (antibody, human IgG1, kappa)
heavy 1: not shown
heavy 2: not shown
light: DIVMTQSPLSLPVTPGEPASISCQASESLVHSNRNTYLHWYLQKPGQSPQLLIYKVSNRFSGVPDRFSGSGSGTDFTLKISRVEAEDVGVYYCSQNTHVPPTFGQGTKVEIERTVAAPSVFIFPPSDEQLKSGTASVVCLLNNFYPREAKVQWKVDNALQSGNSQESVTEQDSKDSTYSLSSTLTLSKADYEKHKVYACEVTHQGLSSPVTKSFNRGEC
notes: as for B1

How the values were obtained:
[1] = target: T1, FcγRIIb extracellular domain with …; test: SPR (Biacore), relative binding, GpH7-A5/GpH7-B3/GpL16-k0 = 100
Description: (§1) Analysis of interaction between objective antibody and the FcγR was carried out using Biacore T100 (GE Healthcare). HBS-EP+ (GE Healthcare) was used as the running buffer, and the measurement temperature was set to 25° C. Chips produced by immobilizing the antigen peptide by the amine coupling method to a Series S Sencor Chip CM5 (GE Healthcare), or alternatively, chips produced by allowing preliminarily biotinylated antigen peptides to interact with and immobilize onto a Series S Sensor Chip SA (certified) (GE Healthcare) were used. Antibodies of interest were captured onto an antigen peptide-immobilized chip, and allowed to interact to each FcγR diluted with running buffer. To regenerate and repeatedly use the chip, the antibodies captured on the chip were washed off by reacting 10 mM glycine-HCl, pH 1.5.
(§2) The FcγR-binding activity of each antibody was assessed primarily using as an indicator the FcγR-binding activity and dissociation constant for FcγR.

[2] = target: T2, FcγRIIIa extracellular domain with C-terminal His tag (human, UniProt P08637 17-208); test: as above
T2 construct: extracellular domain; also called 3a; FcgRIIIa; not shown: His tag at the C terminus
Description: as §1, §2

T2 sequence (P08637 17-208): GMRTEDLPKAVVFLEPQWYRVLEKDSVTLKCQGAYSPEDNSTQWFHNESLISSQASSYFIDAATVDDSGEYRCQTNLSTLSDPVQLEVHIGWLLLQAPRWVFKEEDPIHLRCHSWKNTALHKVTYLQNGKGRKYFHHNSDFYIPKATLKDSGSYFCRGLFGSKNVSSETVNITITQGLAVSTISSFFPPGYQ

Binder | He/Con_2b [1] | He/Con_3a [2]
B1 | 111 % of control | 90.8 % of control
B2 | 104 % of control | 97.6 % of control
B3 | 0.6 % of control | -1.7 % of control
B4 | 126 % of control | 78.7 % of control
B5 | 142 % of control | 78.6 % of control
B6 | 38.3 % of control | 13.6 % of control
B7 | 172 % of control | 53.4 % of control
B8 | 16 % of control | 4.3 % of control
B9 | 105 % of control | 81.1 % of control
B10 | 219 % of control | 79.3 % of control
